Laboratory results from the Human Domainome abundance scans (Beltran et al. 2025).

B1: Tripartite motif-containing protein 49C, residues 87 to 133; numbered along this chain, P0CI26 (parent)
chain: SSEEQMCGTHRETKKIFCEVDRSLLCLLCSSSQEHRYHRHRPIEWAA

Variants of: B1
Test: abundance fitness (aPCA) (normalised: wild type 0, dead -1); higher = more abundant; growth selection in yeast, the domain comes from the species named
Conditions: Homo sapiens

Abundance fitness of substitutions, site by site:
H38: C -0.836 | N -0.781 | Q -0.562 | R -0.591 | Y -0.711
E44: F -0.82 | M -0.488 | N -0.065 | T -0.2 | Y -0.652 | C -0.525 | W -0.598 | A -0.411 | G -0.181 | Q -0.489 | S -0.089
G8: M 0.131 | V -0.02 | S -0.086 | Y -0.082 | T -0.042
W45: S 0.292 | C 0.18 | K 0.518 | T 0.345 | F 0.153 | M 0.255 | D 0.479
M6: W -0.651 | C -0.568 | F -0.769 | T -0.414 | H -0.215 | I -0.855 | S -0.57 | R -0.338
C29: N -0.816 | H -0.418 | K -0.776 | M -0.935 | W -0.815 | S -1.06 | A -0.675 | V -0.959 | L -0.977
S31: W 0.015 | R -0.017 | C -0.194 | L -0.493 | V -0.122 | M -0.408 | K -0.286 | I -0.065 | E -0.123
R36: W -0.66 | L -0.152 | H 0.064 | I -0.217 | A 0.037 | P -0.535 | S -0.197 | V -0.213 | K -0.15 | Y -0.701 | Q -0.199 | D 0.001
E4: W -0.577 | R -0.252 | T 0.02 | C -0.591 | V -0.093 | A -0.224 | K -0.502 | Y -0.35
I16: T -0.399 | C -0.384 | K -0.197 | H -0.557 | Y -0.077 | V -0.129 | D -0.392 | F -0.325 | G -0.554 | A -0.703
E34: H -0.046 | D 0.041 | W -0.928 | G -0.492 | R -0.557 | L -0.659 | S -0.281 | Q -0.41
L25: D -0.725 | A -0.639 | I -0.033 | Q -0.388 | R -0.45 | T -0.612 | M -0.5
A46: D 0.09 | T 0.194 | L -0.039 | N -0.124 | M -0.008
T13: L -0.21 | A 0.168 | R -0.128 | G -0.196 | Y -0.277 | P 0.313 | D -0.364
H40: Q -0.129 | L -0.551 | I -0.893 | K -0.908 | G -0.468
K15: G -0.265 | Q -0.264 | R -0.415 | T -0.119 | M -0.578 | V -0.408
I43: M -0.37 | K 0.352 | E 0.24
R22: I -0.588 | W -0.504 | E 0.449
K14: L -0.247 | H -0.738 | C -0.222
S30: E -0.165 | R -0.697 | A 0.203 | F -0.776 | V -0.257 | Q -0.665 | H -0.528
H35: G -0.769 | E -0.997 | L -1.08 | M -0.916 | D -0.821 | C -0.636 | I -0.882 | Q -1.09
S23: G -0.31 | M -0.062 | T 0.409 | R 0.058 | Q -0.152 | I -0.007 | P -0.686 | C -0.055 | E 0.155
C7: I -0.797 | A -0.935 | R -0.513 | W -0.499 | Y -0.788 | T -0.861
D21: L -0.573 | I -0.789 | Q 0.104 | S -0.023 | Y -0.084 | E -0.142 | T 0.061 | P -1.02 | H -0.267
S1: A -0.49 | E -0.003 | V -0.121 | T -0.496 | G -0.526
C18: L -1.09 | G -0.821 | M -0.674 | R -0.736 | T -0.471 | H -0.768
R11: G -0.069 | A -0.134 | H 0.154 | N -0.049 | E -0.683 | P -0.441 | L -0.418 | Q -0.246
R39: E 0.203 | A -0.103 | S 0.083 | P -0.246 | M -0.155 | W -0.314
V20: H -0.033 | S -0.07 | T -0.067 | L -0.406 | M -0.007 | K 0.161 | Y -0.036
T9: P -0.503 | Q 0.057 | Y -0.183 | W -0.339 | A -0.235 | K 0.185 | R -0.078 | S -0.127
E19: M -0.585 | K -0.66 | V -0.586 | A -0.498 | T -0.512 | I -0.5 | F -0.927 | G -0.619 | W -0.647 | S -0.452
Q5: D 0.159 | K 0.165 | R -0.097 | W -0.465 | A -0.358 | E -0.609 | T -0.345 | M 0.054
Y37: A 0.181 | F -0.059 | S 0.171 | R -0.109 | V -0.243 | E 0.178 | H 0.181 | L 0.127
S32: A -0.222 | V -0.301 | P -0.442 | Q -0.116 | R 0.017 | T -0.278 | W -0.464 | E -0.364 | H -0.483
L24: I -0.61 | V -0.139 | S -0.306 | W -0.095 | H -0.298 | F -0.069 | K -0.403 | G -0.253 | T -0.099
Q33: P 0.391 | F -0.237 | M -0.257 | T -0.116 | G -0.151 | D -0.264
F17: W 0.089 | Y -0.205 | T -0.443 | C -0.77 | H -0.598
H10: D -0.303 | S -0.613 | N -0.836 | L -0.256 | I -1 | G -0.671 | P -0.549 | V -0.788
R41: Y -0.659 | E -0.197 | C -0.609 | Q 0.09 | W -0.413 | V -0.607
S2: I -0.017 | N -0.538 | L -0.204 | P -0.042 | D -0.354 | V -0.29
A47: C -0.591 | E -0.375 | H -0.036 | W -0.144 | D 0.438 | P 0.019
C26: D -0.118 | L -0.787 | T -1.05 | H -0.962 | R -0.798 | S -0.777 | Q -0.776
L28: K 0.003 | P -0.095 | Y 0.056 | C -0.389 | W -0.368
E12: F -0.035 | W -0.439 | R 0.021 | M -0.117 | D 0.077 | A 0.113 | I -0.341 | H -0.228 | T 0.047
P42: N -0.103 | L -0.324 | A 0.022 | R -0.221 | I -0.377 | V -0.393 | H -0.264 | C -0.049 | K 0.11 | T -0.065 | G -0.007
E3: F -0.346 | L -0.176 | H -0.246 | C 0.068 | D 0.084 | V -0.292 | R -0.213
L27: R 0.149 | G 0.145 | E 0.437 | F -0.015
